Source: PMC4932183, “Structure and activation of pro-activin A” (Nature Communications, 2016)

T1: cleaved pro-activin A complex (pro-mature complex) (human, UniProt P08476 311-426)
T1 sequence (P08476 whole entry, looked up): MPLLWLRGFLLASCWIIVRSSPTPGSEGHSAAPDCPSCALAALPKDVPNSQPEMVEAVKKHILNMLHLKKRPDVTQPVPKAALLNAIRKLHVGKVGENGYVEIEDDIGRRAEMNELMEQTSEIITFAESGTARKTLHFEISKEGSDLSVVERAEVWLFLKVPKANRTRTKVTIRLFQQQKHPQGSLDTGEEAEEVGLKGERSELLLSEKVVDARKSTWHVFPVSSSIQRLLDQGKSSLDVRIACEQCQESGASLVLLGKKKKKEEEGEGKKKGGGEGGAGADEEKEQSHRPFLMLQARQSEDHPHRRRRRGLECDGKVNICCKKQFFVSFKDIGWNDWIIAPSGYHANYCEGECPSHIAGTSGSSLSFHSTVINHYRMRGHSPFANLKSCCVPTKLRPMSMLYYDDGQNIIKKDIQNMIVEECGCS

B1: follistatin-288 (natural protein, UniProt P19883-2 30-317, looked up)
chain: GNCWLRQAKNGRCQVLYKTELSKEECCSTGRLSTSWTEEDVNDNTLFKWMIFNGGAPNCIPCKETCENVDCGPGKKCRMNKKNKPRCVCAPDCSNITWKGPVCGLDGKTYRNECALLKARCKEQPELEVQYQGRCKKTCRDVFCPGSSTCVVDQTNNAYCVTCNRICPEPASSEQYLCGNDGVTYSSACHLRKATCLLGRSIGLAYEGKCIKAKSCEDIQCTGGKKCLWDFKVGRGRCSLCDELCPDSKSDEPVCASDNATYASECAMKEAACSSGVLLEVKHSGSCN
B2: mature activin A (disulfide-linked dimer of the mature domain of inhibin βA) (ligand, human, UniProt P08476 311-426, looked up)
chain: GLECDGKVNICCKKQFFVSFKDIGWNDWIIAPSGYHANYCEGECPSHIAGTSGSSLSFHSTVINHYRMRGHSPFANLKSCCVPTKLRPMSMLYYDDGQNIIKKDIQNMIVEECGCS
notes: human inhibin βA chain (Uniprot P08476), mature domain, up to residue 426; residues marked m (Asp27m) count on the mature domain. numbers count on: the mature protein; Residues of the HRV 3C site could be left at the N-terminus of the complex-derived form; also called mature dimer; control activin A

How the values were obtained:
[1] = target: T1, cleaved pro-activin A complex …; assay: cell-based or functional assay
[2] = target: B2; assay: cell-based or functional assay
[3] = target: T2, Avi-tagged follistatin-288, biotinylated (UniProt P19883-2 30-317, biotin (on the Avi tag, by BirA)); assay: BLI; biotinylated Avi-tagged FST-288 immobilised on streptavidin biosensors; analytes in kinetic buffer (PBS, 0.1% bovine serum albumin, 0.02% Tween-20); 600 s association, 600 s dissociation; 30 °C; conditions: both partners purified
T2 construct: source: biotinylated with BirA enzyme, purified by reverse phase chromatography

| IC50 of FST-288 for inhibition of signalling by 60 pM pro-activin A complex; activin-inducible luciferase reporter in HEK293T cells [1] [pM] | IC50 of FST-288 for inhibition of signalling by 60 pM mature activin A; activin-inducible luciferase reporter in HEK293T cells [2] [pM] | Kd [3] [nM] | Binder |
| --- | --- | --- | --- |
| 90 | 81 |  | B1 |
|  |  | 0.209 | B2 |
